Columns and labels:
[1] = biological target: T1, M1 muscarinic acetylcholine receptor (Homo sapiens, UniProt P11229); experiment: 3H-NMS radioligand pseudocompetition binding (allosteric model)
T1 chain: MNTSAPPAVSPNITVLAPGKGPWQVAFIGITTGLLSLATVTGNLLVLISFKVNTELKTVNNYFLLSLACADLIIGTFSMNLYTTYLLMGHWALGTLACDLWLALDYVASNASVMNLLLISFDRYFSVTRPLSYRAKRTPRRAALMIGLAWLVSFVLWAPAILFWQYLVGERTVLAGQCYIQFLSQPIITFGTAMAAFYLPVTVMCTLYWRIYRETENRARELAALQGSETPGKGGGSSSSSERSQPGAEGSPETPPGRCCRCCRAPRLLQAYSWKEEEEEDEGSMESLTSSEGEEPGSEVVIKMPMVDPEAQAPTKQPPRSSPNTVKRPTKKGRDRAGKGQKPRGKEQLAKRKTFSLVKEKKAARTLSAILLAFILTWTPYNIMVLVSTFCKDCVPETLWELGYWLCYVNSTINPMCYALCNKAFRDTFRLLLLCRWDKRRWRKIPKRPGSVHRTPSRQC

[2] = biological target: M3 muscarinic acetylcholine receptor (Homo sapiens, UniProt P20309); experiment: as above
Chain of M3 muscarinic acetylcholine receptor (P20309 whole entry): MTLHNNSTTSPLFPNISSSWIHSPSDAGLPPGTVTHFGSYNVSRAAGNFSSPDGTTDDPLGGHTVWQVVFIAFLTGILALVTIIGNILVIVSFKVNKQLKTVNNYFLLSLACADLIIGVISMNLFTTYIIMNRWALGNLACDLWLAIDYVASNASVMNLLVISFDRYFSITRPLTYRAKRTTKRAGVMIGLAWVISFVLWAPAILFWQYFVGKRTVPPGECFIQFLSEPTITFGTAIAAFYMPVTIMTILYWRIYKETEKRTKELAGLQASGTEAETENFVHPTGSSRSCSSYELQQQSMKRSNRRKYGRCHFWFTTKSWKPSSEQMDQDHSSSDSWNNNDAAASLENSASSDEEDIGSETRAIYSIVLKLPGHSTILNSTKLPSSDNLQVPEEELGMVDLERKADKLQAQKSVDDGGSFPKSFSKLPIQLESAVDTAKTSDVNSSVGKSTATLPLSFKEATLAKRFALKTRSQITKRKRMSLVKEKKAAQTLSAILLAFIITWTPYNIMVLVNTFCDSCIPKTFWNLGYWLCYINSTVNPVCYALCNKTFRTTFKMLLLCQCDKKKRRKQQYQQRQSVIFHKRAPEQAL

- Kd [1]: 231 nM
- Kd [2]: 144 nM
B1: SLURP-2 (protein)
chain: IWCHQCTGFGGCSHGSRCLRDSTHCVTTATRVLSNTEDLPLVTKMCHIGCPDIPSLGLGPYVSIACCQTSLCNHD
